In US20260132182A1 (published 2026):
Starred links: 1 amine or outer side, 2 acyl side, 3 side chain; linkers in the order of their positions; H or OH if unused. Non-standard residues stand in square brackets, D forms with d. Groups on a side chain read outwards from the residue. *: point of attachment. Butyryl(4-SO2NHCO(CH2)16Tz) = O=C(CCCCCCCCCCCCCCCCc1nnn[nH]1)NS(=O)(=O)CCCC(=O)*; C20 diacid = O=C(O)CCCCCCCCCCCCCCCCCCC(=O)*; C18 diacid = O=C(O)CCCCCCCCCCCCCCCCC(=O)*; γGlu = O=C(O)[C@H](CCC(=O)[*:2])N[*:1]; C14 diacid = O=C(O)CCCCCCCCCCCCC(=O)*; Desaminohistidyl = O=C(CCc1c[nH]cn1)*; εLys = N[C@@H](CCCCN[*:1])C(=O)[*:2]; Trx = NC[C@H]1CC[C@H](C(=O)O)CC1; AEEA = NCCOCCOCC(=O)O; Aib = CC(C)(N)C(=O)O

Assays:
human GLP-1 receptor = human GLP-1 receptor (human, UniProt P43220 24-463); test: cell-based or functional assay
[1] = target: T1, human amylin-3 (a) receptor (human, UniProt P30988 25-474; O60896 24-148); test: cell-based or functional assay
T1 sequence (looked up) 1: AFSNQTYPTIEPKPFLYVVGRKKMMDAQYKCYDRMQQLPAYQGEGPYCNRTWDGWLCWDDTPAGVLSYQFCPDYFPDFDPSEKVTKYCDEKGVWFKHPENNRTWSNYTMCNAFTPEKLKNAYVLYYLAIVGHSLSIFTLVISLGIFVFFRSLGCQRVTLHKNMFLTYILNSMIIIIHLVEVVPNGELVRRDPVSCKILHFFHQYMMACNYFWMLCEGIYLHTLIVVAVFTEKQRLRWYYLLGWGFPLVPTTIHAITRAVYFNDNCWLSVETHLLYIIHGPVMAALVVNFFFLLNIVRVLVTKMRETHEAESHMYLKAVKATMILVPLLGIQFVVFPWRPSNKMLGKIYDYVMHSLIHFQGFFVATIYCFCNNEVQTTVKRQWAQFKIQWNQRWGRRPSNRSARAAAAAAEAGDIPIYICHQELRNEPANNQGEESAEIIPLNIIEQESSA
T1 sequence (looked up) 2: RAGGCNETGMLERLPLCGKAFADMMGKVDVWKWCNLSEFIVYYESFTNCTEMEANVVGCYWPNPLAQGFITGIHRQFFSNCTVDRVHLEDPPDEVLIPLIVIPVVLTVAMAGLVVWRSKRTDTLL

Binder	Human GLP-1R potency [EC50 (pM)] (human GLP-1 receptor)	Human AmyR3 potency [EC50 (pM)] [1]
Compound 0179 (peptide) peptide: H[Aib]EGTFTSDVSSYLEEQAAREFIEWLVRGRK([AEEA-AEEA-γGlu-Trx-C20 diacid])EAEAEASELSTAALGRLSAELHELATLPRTETGSGSP-NH2	8.8 pM	35.9 pM
Compound 0142 (peptide) peptide: [Desaminohistidyl][Aib]EGTFTSDVSSYLEEQAAREFIAWLVRGRK([γGlu-C20 diacid])EASELSTAALGRLSAELHELATLPRTETGSGSP-NH2	88.2 pM	15.4 pM
Compound 0159 (peptide) peptide: H[Aib]EGTFTSDVSSYLEGQAAK([εLys-AEEA-AEEA-γGlu-C18 diacid])EFIAWLVRGRGGGGGGGGGEASELSTAALGRLSAELHELATLPRTETGSGSP-NH2	30.3 pM	19.3 pM
Compound 0191 (peptide) peptide: H[Aib]EGTFTSDVSSYLEGQAAREFIAWLVRGRGQEPK([AEEA-AEEA-γGlu-C18 diacid])GQAPASRLSTEALGRLSAELHELATLPRTETGSGSP-NH2	5.9 pM	54.8 pM
Compound 0147 (peptide) peptide: H[Aib]EGTFTSDVSSYLEEQAAREFIEWLVRGK(Butyryl(4-SO2NHCO(CH2)16Tz))ASELSTAALGRLSAELHELATLPRTETGSGSP-NH2	36.8 pM	33.7 pM
Compound 0180 (peptide) peptide: H[Aib]EGTFTSDVSSYLEEQAAREFIEWLVRGRK([εLys-AEEA-AEEA-γGlu-Trx-C20 diacid])EAEAEASELSTAALGRLSAELHELATLPRTETGSGSP-NH2	6.4 pM	37 pM
Compound 0160 (peptide) peptide: H[Aib]EGTFTSDVSSYLEEQAARK([γGlu-C18 diacid])FIAWLVRGRGGGGGGGGK([γGlu-C18 diacid])EASELSTAALGRLSAELHELATLPRTETGSGSP-NH2	11.9 pM	27.3 pM
Compound 0131 (peptide) peptide: H[Aib]EGTFTSDVSSYLEEQAARK([γGlu-C18 diacid])FIAWLVRGRK([γGlu-C18 diacid])EASELSTAALGRLSAELHELATLPRTETGSGSP-NH2	16.1 pM	14.5 pM
Compound 0127 (peptide) peptide: H[Aib]EGTFTSDVSSYLEEQAARK([AEEA-AEEA-γGlu-C18 diacid])FIAWLVRGK([AEEA-AEEA-γGlu-C18 diacid])GGEASELSTAALGRLSAELHELATLPRTETGSGSP-NH2	7.1 pM	63.9 pM
Compound 0144 (peptide) peptide: H[Aib]EGTFTSDVSSYLEEQAAREFIAWLVK([AEEA-AEEA-γGlu-C18 diacid])GRGGGGGEASELSTAALGRLSAELHELATLPRTETGSGSP-NH2	7.1 pM	16.8 pM
Compound 0202 (peptide) peptide: H[Aib]EGTFTSDVSSYLEGQAAK([AEEA-AEEA-γGlu-C20 diacid])EFIAWLVRGRGQEPGQAPEASELSTAALGRLSAELHELATLPRTETGSGSP-NH2	10.5 pM	28.4 pM
Compound 0106 (peptide) peptide: H[Aib]EGTFTSDVSSYLEEQAARK([Ado-Ado-γGlu-C18 diacid])FIEWLVRGK([Ado-Ado-γGlu-C18 diacid])GEGQEPGGASELSTAALGRLSAELHELATLPRTETGSGSP-NH2		28.4 pM
Compound 0124 (peptide) peptide: [Desaminohistidyl][Aib]EGTFTSDVSSYLEEQAAREFIAWLVRGRK(Butyryl(4-SO2NHCO(CH2)16Tz))EASELSTAALGRLSAELHELATLPRTETGSGSP-NH2	27.9 pM	24.4 pM
Compound 0132 (peptide) peptide: H[Aib]EGTFTSDVSSYLEEQAAREFIAWLVRGK([AEEA-AEEA-γGlu-C18 diacid])GGEASELSTAALGRLSAELHELATLPRTETGSGSP-NH2	3 pM	34.9 pM
Compound 0039 (peptide) peptide: HGEGTFTSDVSSYLEEQAARK([AEEA-AEEA-γGlu-C14 diacid])FIEWLVRGK([AEEA-AEEA-γGlu-C14 diacid])GEASELSTAALGRLSAELHELATLPRTETGSGSP-NH2	34.8 pM	59.5 pM
Compound 0636 (peptide) peptide: H[Aib]EGTFTSDVSSYLEEQAARK([AEEA-AEEA-γGlu-γGlu-γGlu-C20 diacid])FIEWLVRGRQEAASELSTAALGRLSAELHQLATLPRTETGSGSP-NH2		8.5 pM
Compound 0035 (peptide) peptide: [Desaminohistidyl]AEGTFTSDVSSYLEEQAAREFIAWLVRGRK([AEEA-AEEA-γGlu-Trx-C20 diacid])EASELSTAALGRLSAELHELATLPRTETGSGSP-NH2	16.7 pM	16 pM
Compound 0125 (peptide) peptide: H[Aib]EGTFTSDVSSYLEEQAARK(Butyryl(4-SO2NHCO(CH2)16Tz))FIAWLVRGRGEASELSTAALGRLSAELHELATLPRTETGSGSP-NH2	8 pM	12.2 pM
Compound 0129 (peptide) peptide: H[Aib]EGTFTSDVSSYLEEQAARK([AEEA-AEEA-γGlu-C18 diacid])FIEWLVRGRK([AEEA-AEEA-γGlu-C18 diacid])GGEASELSTAALGRLSAELHELATLPRTETGSGSP-NH2	1.2 pM	23.5 pM
Compound 0157 (peptide) peptide: H[Aib]EGTFTSDVSSYLEGQAAK([AEEA-AEEA-γGlu-C20 diacid])EFIAWLVRGRGQAPGQEPEASELSTAALGRLSAELHELATLPRTETGSGSP-NH2	28.7 pM	18.4 pM
Compound 0156 (peptide) peptide: H[Aib]EGTFTSDVSSYLEGQAAK([AEEA-AEEA-γGlu-C18 diacid])EFIAWLVRGRGQAPGQEPEASELSTAALGRLSAELHELATLPRTETGSGSP-NH2	22.6 pM	22.6 pM
Compound 0007 (peptide) peptide: H[Aib]EGTFTSDVSSYLEGQAAK([AEEA-AEEA-γGlu-C18 diacid])EFIAWLVRGRGGGEASELSTAALGRLSAELHELATLPRTETGSGSP-NH2	13.3 pM	9.4 pM
Compound 0128 (peptide) peptide: H[Aib]EGTFTSDVSSYLEEQAARK([AEEA-AEEA-γGlu-C18 diacid])FIEWLVRGK([AEEA-AEEA-γGlu-C18 diacid])GGEASELSTAALGRLSAELHELATLPRTETGSGSP-NH2	9.7 pM	110 pM
Compound 0146 (peptide) peptide: H[Aib]EGTFTSDVSSYLEEQAAREFIEWLVRGK(Butyryl(4-SO2NHCO(CH2)16Tz))GGGASELSTAALGRLSAELHELATLPRTETGSGSP-NH2	25.7 pM	14 pM
Compound 0145 (peptide) peptide: H[Aib]EGTFTSDVSSYLEEQAAREFIAWLVRGRGK(Butyryl(4-SO2NHCO(CH2)16Tz))GGGASELSTAALGRLSAELHELATLPRTETGSGSP-NH2	11.9 pM	16.5 pM
Compound 0026 (peptide) peptide: H[Aib]EGTFTSDVSSYLEGQAAK([AEEA-AEEA-γGlu-C18 diacid])EFIAWLVRGRGQEPGQAPEASELSTAALGRLSAELHELATLPRTETGSGSP-NH2	8.8 pM	14 pM
Compound 0151 (peptide) peptide: H[Aib]EGTFTSDVSSYLEGQAAREFIAWLVRGRK([AEEA-AEEA-γGlu-C18 diacid])GGGGEASELSTAALGRLSAELHELATLPRTETGSGSP-NH2	10.4 pM	9.5 pM
Compound 0141 (peptide) peptide: H[Aib]EGTFTSDVSSYLEEQAAREFIAWLVRGRK([γGlu-C20 diacid])EASELSTAALGRLSAELHELATLPRTETGSGSP-NH2	43.3 pM	13.2 pM
